{"source": "patent US20240392002A1", "about": "(EXELIXIS, published 2024)", "binders": {"B1": {"name": "I2C-23 IgG1 (antibody, V domains shown)", "VH": "EVQLVESGGGLVQPGGSLRLSCAASGFTFSSYEIHWVRQAPGKGLEWVASIYPFSGDTYYADSVKGRFTISADTSKNTAYLQMNSLRAEDTAVYYCARPGRAIYYAVMDYWGQGTLVTVSS", "VL": "DIQMTQSPSSLSASVGDRVTITCRASQSVSSAVAWYQQKPGKAPKLLIYSASSLYSGVPSRFSGSRSGTDFTLTISSLQPEDFATYYCQQAGSHLFTFGQGTKVEIK", "notes": "human IgG1"}, "B2": {"name": "I2C-6 IgG1 (antibody, V domains shown)", "VH": "EVQLVESGGGLVQPGGSLRLSCAASGFTFSWYFIHWVRQAPGKGLEWVARIYSTGGYTEYADSVKGRFTISADTSKNTAYLQMNSLRAEDTAVYYCARSAFFGALDYWGQGTLVTVSS", "VL": "B1 VL with A91Y, G92P, H94G, L95P, F96E", "notes": "human IgG1"}, "B3": {"name": "I2A-19 IgG1 (antibody, V domains shown)", "VH": "EVQLVESGGGLVQPGGSLRLSCAASGFTFSSYFIHWVRQAPGKGLEWVAWIYPSGSYTYYADSVKGRFTISADTSKNTAYLQMNSLRAEDTAVYYCAREMDRVGYSGMDYWGQGTLVTVSS", "VL": "B1 VL with A91Y, G92R, S93T, H94P, F96G", "notes": "human IgG1"}, "B4": {"name": "I2A-32 IgG1 (antibody, V domains shown)", "VH": "EVQLVESGGGLVQPGGSLRLSCAASGFTFQSYVIHWVRQAPGKGLEWVAAIYPYSSSTIYADSVKGRFTISADTSKNTAYLQMNSLRAEDTAVYYCARSWSVYLGMDYWGQGTLVTVSS", "VL": "B1 VL with A91S, G92Y, S93D, H94S, L95P, F96R", "notes": "human IgG1"}, "B5": {"name": "I2A-25 IgG1 (antibody, V domains shown)", "VH": "EVQLVESGGGLVQPGGSLRLSCAASGFTFYGYTIHWVRQAPGKGLEWVAAIYPYTDSTRYADSVKGRFTISADTSKNTAYLQMNSLRAEDTAVYYCARDYRRALDYWGQGTLVTVSS", "VL": "B1 VL with A91Y, G92T, S93D, H94F, L95P, F96W", "notes": "human IgG1"}, "B6": {"name": "I2A-34 IgG1 (antibody, V domains shown)", "VH": "EVQLVESGGGLVQPGGSLRLSCAASGFTFSWYVIHWVRQAPGKGLEWVAYIAPYTGSTYYADSVKGRFTISADTSKNTAYLQMNSLRAEDTAVYYCARAFFGIRLGLDYWGQGTLVTVSS", "VL": "B1 VL with G92I, H94S, L95P, F96Y", "notes": "human IgG1"}, "B7": {"name": "I2A-11 IgG1 (antibody, V domains shown)", "VH": "EVQLVESGGGLVQPGGSLRLSCAASGFTFSSYVIHWVRQAPGKGLEWVAAIYPYTSSTQYADSVKGRFTISADTSKNTAYLQMNSLRAEDTAVYYCARSYGTGGFDYWGQGTLVTVSS", "VL": "B1 VL with A91W, G92Y, H94Y, L95P, F96L", "notes": "human IgG1"}, "B8": {"name": "I2C-8 IgG1 (antibody, V domains shown)", "VH": "EVQLVESGGGLVQPGGSLRLSCAASGFTFSGYFIHWVRQAPGKGLEWVAAIFPYRGGTSYADSVKGRFTISADTSKNTAYLQMNSLRAEDTAVYYCARGGVSPGGFDYWGQGTLVTVSS", "VL": "B1 VL with A91Y, G92Y, S93L, H94Y, L95P, F96G", "notes": "human IgG1; same CDRs as I2A-16; also called 12C-8"}, "B9": {"name": "I2A-3 IgG1 (antibody, V domains shown)", "VH": "EVQLVESGGGLVQPGGSLRLSCAASGFTFTSYEIHWVRQAPGKGLEWVAHIDPYGGYTQYADSVKGRFTISADTSKNTAYLQMNSLRAEDTAVYYCARRGVAVFDYWGQGTLVTVSS", "VL": "B1 VL with A91W, G92A, S93Y, H94A, L95P, F96V", "notes": "human IgG1"}, "B10": {"name": "I2C-10 IgG1 (antibody, V domains shown)", "VH": "EVQLVESGGGLVQPGGSLRLSCAASGFTFSSYFIHWVRQAPGKGLEWVATIHSYFDGTSYADSVKGRFTISADTSKNTAYLQMNSLRAEDTAVYYCARTRPTGGAFDYWGQGTLVTVSS", "VL": "B1 VL with G92Y, S93W, H94S, L95P, F96A", "notes": "human IgG1"}, "B11": {"name": "I2C-4 IgG1 (antibody, V domains shown)", "VH": "EVQLVESGGGLVQPGGSLRLSCAASGFTFWSYFIHWVRQAPGKGLEWVAYIHPSSSYTDYADSVKGRFTISADTSKNTAYLQMNSLRAEDTAVYYCARTSRDGAMDYWGQGTLVTVSS", "VL": "B1 VL with A91W, G92Y, H94P, L95P, F96E", "notes": "human IgG1"}, "B12": {"name": "I2C-9 IgG1 (antibody, V domains shown)", "VH": "EVQLVESGGGLVQPGGSLRLSCAASGFTFTDYDIHWVRQAPGKGLEWVARIWPHGSYTFYADSVKGRFTISADTSKNTAYLQMNSLRAEDTAVYYCARSLTHSYGFDYWGQGTLVTVSS", "VL": "B1 VL with A91Y, G92Y, S93T, H94W, F96I", "notes": "human IgG1"}, "B13": {"name": "I2A-6 IgG1 (antibody, V domains shown)", "VH": "EVQLVESGGGLVQPGGSLRLSCAASGFTFSLYAIHWVRQAPGKGLEWVAEIDSWLGYTYYADSVKGRFTISADTSKNTAYLQMNSLRAEDTAVYYCARRPVTEVYYSALDYWGQGTLVTVSS", "VL": "B1 VL with A91Y, G92D, S93R, H94S, F96H", "notes": "human IgG1"}, "B14": {"name": "I2A-4 IgG1 (antibody, V domains shown)", "VH": "EVQLVESGGGLVQPGGSLRLSCAASGFTFYSYDIHWVRQAPGKGLEWVAYISPYWGITTYADSVKGRFTISADTSKNTAYLQMNSLRAEDTAVYYCARYIGSSYWDALDYWGQGTLVTVSS", "VL": "B1 VL with A91S, G92D, H94S, F96V", "notes": "human IgG1"}, "B15": {"name": "I2A-22 IgG1 (antibody, V domains shown)", "VH": "EVQLVESGGGLVQPGGSLRLSCAASGFTFSSYFIHWVRQAPGKGLEWVAAIYPSGWYTSYADSVKGRFTISADTSKNTAYLQMNSLRAEDTAVYYCARVQAGVFDYWGQGTLVTVSS", "VL": "B1 VL with A91Y, G92Y, S93Y, H94Y, L95P, F96G", "notes": "human IgG1"}, "B16": {"name": "I2C-2 IgG1 (antibody, V domains shown)", "VH": "EVQLVESGGGLVQPGGSLRLSCAASGFTFSDYFIHWVRQAPGKGLEWVAGIYPYSGYTKYADSVKGRFTISADTSKNTAYLQMNSLRAEDTAVYYCARDHSPVLDYWGQGTLVTVSS", "VL": "B1 VL with A91W, G92Y, S93Y, H94W, L95P, F96G", "notes": "human IgG1"}, "B17": {"name": "I2C-1 IgG1 (antibody, V domains shown)", "VH": "EVQLVESGGGLVQPGGSLRLSCAASGFTFTSYGIHWVRQAPGKGLEWVAAIYPHSGFTSYADSVKGRFTISADTSKNTAYLQMNSLRAEDTAVYYCARTSYRGFDYWGQGTLVTVSS", "VL": "B1 VL with A91Y, G92Y, S93W, H94Y, L95P, F96G", "notes": "human IgG1"}, "B18": {"name": "I2A-10 IgG1 (antibody, V domains shown)", "VH": "B15 VH with A50G, G55D, W56G, V99Y, Q100Y, A101V, G102S, V103G, F104M", "VL": "DIQMTQSPSSLSASVGDRVTITCRASQSVSSAVAWYQQKPGKAPKLLIYSASSLYSGVPSRFSGSRSGTDFTLTISSLQPEDFATYYCQQYYYYPGTFGQGTKVEIKR", "notes": "bivalent monospecific native human full-length IgG1; the Domain F / Domain A entries end with AS / RT of the junction to the constant domain; also called clone I2-A10"}, "B19": {"name": "non-mutagenized SP34-89 monovalent B-Body (bispecific antibody, V domains shown)", "VH": "EVQLVESGGGLVQPGGSLRLSCAASGFTFNTYAMNWVRQAPGKGLEWVARIRSKYNNYATYYADSVKGRFSISRDDSKNTAYLQMNSLRAEDTAVYYCVRHGNFGNSYVSWFAYWGQGTLVTV", "VL": "QAVVTQEPSLTVSPGGTVTLTCRSSTGAVTTSNYANWVQQKPGQAPRGLIGGTNKRAPWTPARFSGSLLGGKAALTITGAQAEDEADYYCALWYSNLWVFGGGTKLTVL", "notes": "cloned into one arm of a 1×1 BC1 B-Body"}}, "note": "Numbering of substitutions follows the chain as printed. Numbers in names are those of the source."}
{"target": "T1, ROR1 Frizzled domain (human, UniProt Q01973 165-299)", "T1 construct": "also called FZ domain; Acro Cat. No. RO1-H5222", "T1 sequence (Q01973 165-299)": "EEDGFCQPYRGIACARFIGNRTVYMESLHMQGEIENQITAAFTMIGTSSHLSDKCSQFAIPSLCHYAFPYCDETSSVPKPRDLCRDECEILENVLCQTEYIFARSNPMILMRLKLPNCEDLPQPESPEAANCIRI", "experiment": "BLI, IgG1 on biosensor, soluble ROR1 domain", "excerpt": "(§1) To measure binding affinity in ROR binder discovery campaigns, the VL and VH domains identified in the phage screen described above were formatted into a bivalent monospecific native human full-length IgG1 architecture and immobilized to a biosensor on an Octet (Pall ForteBio) biolayer interferometer. Soluble ROR antigens, including the extracellular domains of ROR1 (Acro Cat. No. RO1-H522γ) and ROR2 (Acro Cat. No. R02-H52E5), as well as the individual ROR1 Frizzled (Acro Cat. No. RO1-H5222), Ig-like (Acro Cat. No. RO1-H5221), and Kringle (Acro Cat. No. RO1-H5223) domains, were then added to the system and binding measured.\n(§2) ROR binding candidates, formatted in the bivalent monospecific native human full-length IgG1 architecture, were further characterized for binding to ROR1 and/or ROR2. […] ROR binding candidates were also characterized for their binding to specific ROR1 domains."}
{"binder": "B1", "binding result": "binds"}
{"binder": "B2", "binding result": "binds"}
{"binder": "B3", "binding result": "binds"}
{"binder": "B4", "binding result": "binds"}
{"binder": "B5", "binding result": "binds"}
{"binder": "B6", "binding result": "binds"}
{"binder": "B7", "binding result": "binds"}
{"target": "T2, ROR1 Ig-like domain (human, UniProt Q01973 42-147)", "T2 construct": "also called Acro Cat. No. RO1-H5221", "T2 sequence (Q01973 42-147)": "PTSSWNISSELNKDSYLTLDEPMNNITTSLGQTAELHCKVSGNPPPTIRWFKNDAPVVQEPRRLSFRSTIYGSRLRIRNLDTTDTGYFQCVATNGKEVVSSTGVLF", "experiment": "BLI, IgG1 on biosensor, soluble ROR1 domain", "excerpt": "as §1, §2"}
{"binder": "B8", "binding result": "binds"}
{"binder": "B9", "binding result": "binds"}
{"binder": "B10", "binding result": "binds"}
{"binder": "B11", "binding result": "binds"}
{"binder": "B12", "binding result": "binds"}
{"binder": "B13", "binding result": "binds"}
{"binder": "B14", "binding result": "binds"}
{"binder": "B15", "binding result": "binds"}
{"binder": "B16", "binding result": "binds"}
{"binder": "B17", "binding result": "binds"}
{"target": "T3, extracellular domain of human ROR1 (human, UniProt Q01973 30-406)", "T3 construct": "bought protein; biotinylated in the bivalent assay format; also called Acro Cat. No. RO1-H522y", "T3 sequence (Q01973 30-406 limits assumed)": "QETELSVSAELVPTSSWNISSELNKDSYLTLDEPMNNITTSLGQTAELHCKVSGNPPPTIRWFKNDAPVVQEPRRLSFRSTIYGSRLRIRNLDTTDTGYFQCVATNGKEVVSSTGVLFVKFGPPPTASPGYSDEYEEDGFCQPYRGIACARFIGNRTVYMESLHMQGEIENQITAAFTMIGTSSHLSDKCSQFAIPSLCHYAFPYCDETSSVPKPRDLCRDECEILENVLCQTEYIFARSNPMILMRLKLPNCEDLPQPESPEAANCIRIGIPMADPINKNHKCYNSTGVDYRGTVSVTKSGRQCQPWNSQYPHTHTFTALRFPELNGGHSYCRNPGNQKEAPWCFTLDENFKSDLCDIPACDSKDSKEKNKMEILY", "experiment": "BLI, IgG1 on biosensor, soluble ROR ectodomain", "excerpt": "as §1, §2"}
{"binder": "B1", "binding result": "binds"}
{"binder": "B8", "binding result": "binds"}
{"binder": "B9", "binding result": "binds"}
{"binder": "B10", "binding result": "binds"}
{"binder": "B2", "binding result": "binds"}
{"binder": "B11", "binding result": "binds"}
{"binder": "B3", "binding result": "binds"}
{"binder": "B12", "binding result": "binds"}
{"binder": "B4", "binding result": "binds"}
{"binder": "B5", "binding result": "binds"}
{"binder": "B13", "binding result": "binds"}
{"binder": "B6", "binding result": "binds"}
{"binder": "B7", "binding result": "binds"}
{"binder": "B14", "binding result": "binds"}
{"binder": "B15", "binding result": "binds"}
{"binder": "B16", "binding result": "binds"}
{"binder": "B17", "binding result": "binds"}
{"target": "T4, extracellular domain of human ROR2 (human, UniProt Q01974 34-403)", "T4 construct": "bought protein; biotinylated in the bivalent assay format; also called Acro Cat. No. RO2-H52E5", "T4 sequence (Q01974 34-403 limits assumed)": "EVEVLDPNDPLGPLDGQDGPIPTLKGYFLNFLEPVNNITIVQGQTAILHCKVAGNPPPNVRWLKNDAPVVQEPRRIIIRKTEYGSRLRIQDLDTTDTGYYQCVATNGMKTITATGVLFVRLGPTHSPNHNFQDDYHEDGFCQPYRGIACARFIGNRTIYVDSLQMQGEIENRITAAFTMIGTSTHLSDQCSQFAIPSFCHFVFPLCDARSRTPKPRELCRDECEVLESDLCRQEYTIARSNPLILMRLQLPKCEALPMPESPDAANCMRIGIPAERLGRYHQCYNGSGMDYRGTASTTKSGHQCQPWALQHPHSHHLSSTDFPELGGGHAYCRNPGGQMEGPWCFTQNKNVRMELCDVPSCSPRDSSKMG", "experiment": "BLI, IgG1 on biosensor, soluble ROR ectodomain", "excerpt": "as §1, §2"}
{"binder": "B1", "binding result": "binds"}
{"binder": "B8", "binding result": "binds"}
{"binder": "B9", "binding result": "no binding"}
{"binder": "B10", "binding result": "binds"}
{"binder": "B2", "binding result": "binds"}
{"binder": "B11", "binding result": "binds"}
{"binder": "B3", "binding result": "binds"}
{"binder": "B12", "binding result": "binds"}
{"binder": "B4", "binding result": "no binding"}
{"binder": "B5", "binding result": "no binding"}
{"binder": "B13", "binding result": "no binding"}
{"binder": "B6", "binding result": "binds"}
{"binder": "B7", "binding result": "binds"}
{"binder": "B14", "binding result": "no binding"}
{"binder": "B18", "binding result": "binds"}
{"binder": "B15", "binding result": "binds"}
{"binder": "B16", "binding result": "binds"}
{"binder": "B17", "binding result": "binds"}
{"target": "T3, extracellular domain of human ROR1", "experiment": "BLI (Octet), IgG1, two-fold serial dilution 200-12.5 nM", "excerpt": "as §1\nThe VH and VL sequences above were formatted into a bivalent monospecific native human full-length IgG1 architecture.", "units": {"Kd": "nM", "koff": "s⁻¹", "kon": "M⁻¹ s⁻¹"}}
{"binder": "B18", "Kd": 0.82, "koff": 0.00038, "kon": 538000}
{"target": "human CD3 delta and epsilon heterodimer (human, UniProt P07766 23-126; P04234 22-105)", "sequence (P07766 23-126, stated change not applied, chain 1 of 2)": "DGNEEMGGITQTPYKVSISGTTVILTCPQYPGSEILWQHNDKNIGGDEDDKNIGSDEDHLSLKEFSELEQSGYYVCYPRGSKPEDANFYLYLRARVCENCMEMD", "sequence (P04234 22-105, stated change not applied, chain 2 of 2)": "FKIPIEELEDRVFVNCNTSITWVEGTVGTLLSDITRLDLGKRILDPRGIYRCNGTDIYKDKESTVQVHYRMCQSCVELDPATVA", "experiment": "BLI (Octet), two-fold serial dilution 200-12.5 nM of the construct", "units": {"Kd": "nM", "koff": "s⁻¹", "kon": "M⁻¹ s⁻¹"}}
{"binder": "B19", "Kd": 23, "koff": 0.0071, "kon": 300000}
